Data published in article PMC10272179, “Structural insight into the human SID1 transmembrane family member 2 reveals its lipid hydrolytic activity” (Nature Communications, 2023).

B1: human SIDT2 (SID1 transmembrane family member 2) (Homo sapiens) (protein)
chain: HLGVLGPKNVSQKDAEFERTYVDEVNSELVNIYTFNHTVTRNRTEGVRVSVNVLNKQKGAPLLFVVRQKEAVVSFQVPLILRGMFQRKYLYQKVERTLCQPPTKNESEIQFFYVDVSTLSPVNTTYQLRVSRMDDFVLRTGEQFSFNTTAAQPQYFKYEFPEGVDSVIVKVTSNKAFPCSVISIQDVLCPVYDLDNNVAFIGMYQTMTKKAAITVQRKDFPSNSFYVVVVVKTEDQACGGSLPFYPFAEDEPVDQGHRQKTLSVLVSQAVTSEAYVSGMLFCLGIFLSFYLLTVLLACWENWRQKKKTLLVAIDRACPESGHPRVLADSFPGSSPYEGYNYGSFENVSGSTDGLVDSAGTGDLSYGYQGRSFEPVGTRPRVDSMSSVEEDDYDTLTDIDSDKNVIRTKQYLYVADLARKDKRVLRKKYQIYFWNIATIAVFYALPVVQLVITYQTVVNVTGNQDICYYNFLCAHPLGNLSAFNNILSNLGYILLGLLFLLIILQREINHNRALLRNDLCALECGIPKHFGLFYAMGTALMMEGLLSACYHVCPNYTNFQFDTSFMYMIAGLCMLKLYQKRHPDINASAYSAYACLAIVIFFSVLGVVFGKGNTAFWIVFSIIHIIATLLLSTQLYYMGRWKLDSGIFRRILHVLYTDCIRQCSGPLYVDRMVLLVMGNVINWSLAAYGLIMRPNDFASYLLAIGICNLLLYFAFYIIMKLRSGERIKLIPLLCIVCTSVVWGFALFFFFQGLSTWQKTPAESREHNRDCILLDFFDDHDIWHFLSSIAMFGSFLVLLTLDDDLDTVQRDKIYVF
notes: full-length (832 residues, with signal peptide), C-terminal FLAG and His8 tags, expressed in HEK293F, purified in GDN; homodimer
B2: human SID1 transmembrane family member 2 (SIDT2), full-length (natural protein, UniProt Q8NBJ9 19-832, looked up)
chain: HLGVLGPKNVSQKDAEFERTYVDEVNSELVNIYTFNHTVTRNRTEGVRVSVNVLNKQKGAPLLFVVRQKEAVVSFQVPLILRGMFQRKYLYQKVERTLCQPPTKNESEIQFFYVDVSTLSPVNTTYQLRVSRMDDFVLRTGEQFSFNTTAAQPQYFKYEFPEGVDSVIVKVTSNKAFPCSVISIQDVLCPVYDLDNNVAFIGMYQTMTKKAAITVQRKDFPSNSFYVVVVVKTEDQACGGSLPFYPFAEDEPVDQGHRQKTLSVLVSQAVTSEAYVSGMLFCLGIFLSFYLLTVLLACWENWRQKKKTLLVAIDRACPESGHPRVLADSFPGSSPYEGYNYGSFENVSGSTDGLVDSAGTGDLSYGYQGRSFEPVGTRPRVDSMSSVEEDDYDTLTDIDSDKNVIRTKQYLYVADLARKDKRVLRKKYQIYFWNIATIAVFYALPVVQLVITYQTVVNVTGNQDICYYNFLCAHPLGNLSAFNNILSNLGYILLGLLFLLIILQREINHNRALLRNDLCALECGIPKHFGLFYAMGTALMMEGLLSACYHVCPNYTNFQFDTSFMYMIAGLCMLKLYQKRHPDINASAYSAYACLAIVIFFSVLGVVFGKGNTAFWIVFSIIHIIATLLLSTQLYYMGRWKLDSGIFRRILHVLYTDCIRQCSGPLYVDRMVLLVMGNVINWSLAAYGLIMRPNDFASYLLAIGICNLLLYFAFYIIMKLRSGERIKLIPLLCIVCTSVVWGFALFFFFQGLSTWQKTPAESREHNRDCILLDFFDDHDIWHFLSSIAMFGSFLVLLTLDDDLDTVQRDKIYVF
modifications: N-linked glycans resolved at N27, N54, N60, N123, N141 and N165
notes: SIDT2, human, full-length cDNA; 832-amino acid protein with a signal peptide, BRD1 (23-152), BRD2 (157-287), CTD between TM1 and TM2, and eleven TMs; Expressed from the full-length cDNA with its own signal peptide; also called apoSIDT2-pH 7.4; apoSIDT2-pH 5.5

Experiments:
[1] = substrate: CCCCCCCCCCCCC/C=C/[C@@H](O)[C@H](CO)NC(=O)CCCCCCCCCCCCCCCCC; assay: LC-MS quantification of sphingosine, Michaelis-Menten fit; type: biochemical, Homo sapiens; settings: 0.3 μM enzyme, 25 mM Tris pH 8.0, 150 mM NaCl, 0.02% DDM, 0.002% CHS micelles, room temperature, 30 min
[2] = molecular target: the molecule itself; assay: cryo-EM structure; purified SIDT2 in GDN micelles; three samples: pH 7.4 (HEPES, 150 mM NaCl), pH 5.5 (MES) and pH 5.5 plus miRNA2911 (RNA:protein 5:1); refinement with C2 symmetry; no conformational change between the three

| Protein | Km [1] [µM] | kcat [1] [s⁻¹] | stoichiometry N [2] |
| --- | --- | --- | --- |
| B1 | 9.0 | 0.00012 |  |
| B2 |  |  | 2 |
